Test results as given in US20220135701A1 (Genentech, published 2022).
Residue numbers refer to the chain shown, from its start. Values belong to the binder of their own block, whether it stands above or below them.

Target: T1, human MerTK (human, UniProt Q12866 26-499)
T1 construct: also called HuMER
T1 sequence: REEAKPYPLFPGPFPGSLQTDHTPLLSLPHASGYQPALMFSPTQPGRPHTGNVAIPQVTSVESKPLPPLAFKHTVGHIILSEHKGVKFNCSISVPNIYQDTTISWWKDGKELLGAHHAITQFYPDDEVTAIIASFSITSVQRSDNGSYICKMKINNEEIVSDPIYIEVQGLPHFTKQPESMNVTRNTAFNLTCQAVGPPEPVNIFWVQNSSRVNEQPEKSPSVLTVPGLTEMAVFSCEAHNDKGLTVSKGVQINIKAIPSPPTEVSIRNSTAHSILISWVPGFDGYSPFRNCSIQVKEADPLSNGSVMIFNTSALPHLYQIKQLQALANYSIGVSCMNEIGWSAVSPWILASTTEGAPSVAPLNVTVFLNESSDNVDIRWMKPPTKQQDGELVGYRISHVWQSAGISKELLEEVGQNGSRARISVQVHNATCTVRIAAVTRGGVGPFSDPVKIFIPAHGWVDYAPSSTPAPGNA
Experiment: SPR BIAcore T200, Ab captured, 37C
Procedure: Each humanized mutation variant was subject to BIAcore analysis to determine the important rabbit residues for binding and stability. Binding affinity determinations were obtained using Surface Plasmon Resonance (SRP) measurements from a BIAcore™-T200 instrument. Briefly, each humanized mutation variant antibody was captured to achieve approximately 100 RU (Response Units). Then, 3-fold serial dilutions of human MerTK (0.4 nM to 100 nM) diluted in HBS-EP buffer (0.01M HEPES pH 7.4, 0.15M NaCl, 3 mM EDTA and 0.05% v/v surfactant P20) was injected into the BIAcore™-T200 instrument at 37° C. with a flow rate of 30 μl/min. Association rates (kₒₙ) and dissociation rates (koff) were calculated using a simple one-to-one Langmuir binding model (BIAcore T200 evaluation software version 2.0). The equilibrium dissociation constant (KD) was calculated as the ratio koff/kₒₙ.

B1: h10C3.V1 HC F91Y (antibody, name in Kabat numbering, V domains shown)
VH: EQQLVESGGGLVQPGGSLRLSCAASGFSLSGYTMGWVRQAPGKGLEYIGVISSGGTTYYTNWAKGRFTISKDSSKNTVYLQMGSLRAEDMAVYYCARVAFTAYGGGGFPTLHRLDLWGQGTLVTVSS
VL: DQVLTQSPDSLAVSLGERATINCQSSESVYNNDYLAWYQQKPGQPPKLLIYSASTLASGVPDRFSGSGSGTDFTLTISSLQAEDVAVYYCAGGYLGNNVFGGGTKVEIK
notes: Framework variant of h10C3.v1 (human IgG1)
Kd: 14.9 nM

B2: h10C3.V1 HC K71R (antibody, human IgG1, name in Kabat numbering, V domains shown)
VH: B1 VH with K71R, Y94F
VL: B1 VL
notes: as for B1
Kd: 20 nM

B3: h10C3.V1 HC G49S (antibody, human IgG1, name in Kabat numbering, V domains shown)
VH: B1 VH with G49S, Y94F
VL: B1 VL
notes: as for B1
Kd: 30.2 nM

B4: h10C3.V1 HC S73N (antibody, human IgG1, name in Kabat numbering, V domains shown)
VH: B1 VH with S73N, Y94F
VL: B1 VL
notes: as for B1
Kd: 15 nM

B6: h10C3.V1 HC I48V (antibody, human IgG1, name in Kabat numbering, V domains shown)
VH: B1 VH with I48V, Y94F
VL: B1 VL
notes: as for B1
Kd: 17.1 nM

B7: h10C3.V1 HC Q2V (antibody, human IgG1, name in Kabat numbering, V domains shown)
VH: B1 VH with Q2V, Y94F
VL: B1 VL
notes: as for B1
Kd: 12.5 nM

B8: h10C3.V1 LC L4M (antibody, human IgG1, name in Kabat numbering, V domains shown)
VH: B1 VH with Y94F
VL: B1 VL with L4M
notes: as for B1
Kd: 12.3 nM

B9: h10C3.V1 LC Q2I (antibody, human IgG1, name in Kabat numbering, V domains shown)
VH: B1 VH with Y94F
VL: B1 VL with Q2I
notes: as for B1
Kd: 17.1 nM

B13: h9E3.FN.V1 HC F91Y (antibody, name in Kabat numbering, V domains shown)
VH: EQQLVESGGGLIQPGGSLRLSCAVSGFSLSSNAMSWVRQAPGKGLEWIGIISSSGSTYSASWAKGRFTISKDSSKNTMYLQMNSLRAEDTAVYYCARVGFFVGYGAYDYGIIHRLDLWGQGTLVTVSS
VL: DAQLTQSPSTLSASVGDRVTITCQSSKSIYNNNWLSWYQQKPGKPPKLLIYDASDLASGVPSRFSGSGSGTEFTLTISSLQPDDFATYYCAGGYSGDSDYAFGGGTKVEIK
notes: Framework variant of h9E3.FN.v1 (human IgG1)
Kd: 11.5 nM

B16: h9E3.FN.V1 HC K71R (antibody, human IgG1, name in Kabat numbering, V domains shown)
VH: B13 VH with K71R, Y94F
VL: B13 VL
notes: as for B13
Kd: 41.3 nM

The next binders have a lower Kd than those just listed; values first:

Kd: 7.4 nM
B5: h10C3.V1 HC V78L (antibody, human IgG1, name in Kabat numbering, V domains shown)
VH: B1 VH with V78L, Y94F
VL: B1 VL
notes: as for B1

Kd: 5.9 nM
B10: h10F7.V1 LC A2I (antibody, human IgG1, name in Kabat numbering, V domains shown)
VH: EQQLVESGGGLVQPGGSLRLSCAVSGFSLSGYAMSWVRQAPGKGLEYIGVISSSGSSYYPSWAKGRFTISKDSSKNTVYLQMGSLRAEDMAVYFCARVQFYVGYAVYGYGIIDRLDLWGQGTLVTVSS
VL: DIVLTQSPDSLAVSLGERATINCQSSKSVYNNNWLSWYQQKPGQPPKLLIYRASTLESGVPDRFSGSGSGTDFTLTISSLQAEDVAVYFCAGGYSSSSSANAFGGGTKVEIK
notes: Framework variant of h10F7.v1 (human IgG1)

Kd: 6.2 nM
B11: h10F7.V1 LC L4M (antibody, human IgG1, name in Kabat numbering, V domains shown)
VH: B10 VH
VL: B10 VL with I2A, L4M
notes: as for B10

Kd: 8.8 nM
B12: h10F7.V1 LC F87Y (antibody, name in Kabat numbering, V domains shown)
VH: B10 VH
VL: B10 VL with I2A, F89Y
notes: as for B10

Kd: 5.6 nM
B14: h9E3.FN.V1 HC G49S (antibody, human IgG1, name in Kabat numbering, V domains shown)
VH: B13 VH with G49S, Y94F
VL: B13 VL
notes: as for B13

Kd: 10.2 nM
B15: h9E3.FN.V1 HC I48V (antibody, human IgG1, name in Kabat numbering, V domains shown)
VH: B13 VH with I48V, Y94F
VL: B13 VL
notes: as for B13
